Legend:
[1] = molecular target: recombinant HBcAg assembly domain dimer (construct Cp1–149.C48A.C107A) (Hepatitis B virus (strain not stated)) (UniProt P03147); assay: AUC
[2] = molecular target: recombinant HBeAg dimer (construct Cp(−10) 149 C48A.C107A) (Hepatitis B virus (strain not stated)) (UniProt P03147); assay: AUC

| Substance | stoichiometry N [1] | percent of dimers converted to capsids (the pair that is blocked) [2] |
| --- | --- | --- |
| recombinant HBcAg assembly domain dimer (construct Cp1–149.C48A.C107A) (from UniProt P03147 1-149) (domain or fragment) | 2 | – |
| recombinant HBeAg dimer (construct Cp(−10) 149 C48A.C107A) (from UniProt P03147 1-149) (domain or fragment) | – | 40% |
